Reference: patent US20210284724A1

What was measured:
Assay in all cases: alanine scan, flow cytometry on transfected cells
[1] = target: human CXCL13 R24A (human) (UniProt O43927)
[2] = target: human CXCL13 P22A (human) (UniProt O43927)
[3] = target: human CXCL13 F25A (human) (UniProt O43927)
[4] = target: human CXCL13 F20A (human) (UniProt O43927)
Sequence of human CXCL13 F20A (human) (O43927 23-109 F42A): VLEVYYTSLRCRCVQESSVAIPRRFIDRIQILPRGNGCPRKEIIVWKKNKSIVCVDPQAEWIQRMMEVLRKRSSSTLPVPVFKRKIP

Sequence of human CXCL13 F25A (human) (O43927 23-109 F47A): as the sequence (O43927 23-109 F42A) above, with A20F, F25A counted along it
Sequence of human CXCL13 P22A (human) (O43927 23-109 P44A): as the sequence (O43927 23-109 F42A) above, with A20F, P22A counted along it
Sequence of human CXCL13 R24A (human) (O43927 23-109 R46A): as the sequence (O43927 23-109 F42A) above, with A20F, R24A counted along it

- Binding reactivity (% WT) [1]: 88 % WT
- Binding reactivity (% WT) [2]: 97.4 % WT
- Binding reactivity (% WT) [3]: 127 % WT
- Binding reactivity (% WT) [4]: 110 % WT
Substance: Control Fab
